{
  "source": "patent US8198236B2",
  "about": "“Methods and compositions for the treatment of cancer” (Washington University, priority 2007, dated 2012)",
  "key": {"[1]": {"assay": "Mesd in serum after a single i.p. dose (Western blot quantification)", "type": "in vivo, mice", "protocol": "In experiments shown in FIG. 23, pharmacokinetics of Mesd peptide and Mesd were examined. FIG. 23A: Amount of Mesd in serum following a single dose of protein administration. Mice were dosed at 5, 10, 20 mg/kg of Mesd via i.p. and the serum samples were collected from individual mice at the indicated time points. The levels of Mesd in serum were quantified by comparison to Mesd pure protein with known concentrations in Western blot analysis. Values are the average of triple determinations with S.D. indicated by error bars. […] Samples were obtained by terminal bleed under anesthesia at each of the indicated time points (N=3 animals per time point). Radioactivity was measured using a gamma counter and DPM converted to mass units/mL blood using the specific activity (DPM/mass) of each test substance. Data are plotted as mass U/mL of test substance with standard deviation indicated by error bars."}, "[2]": {"assay": "Side effects on non-tumor tissues of treated mice (H&E staining, x-ray, weight)", "protocol": "Hemotoxylin and eosin (H&E) staining was performed on tumor xenograft tissue, skin and intestine harvested at the end of Mesd treatment.\nFIG. 24D: H&E staining of tail vertebrae treated with PBS, Mesd or Mesd peptide."}, "LRP5 [3]": {"molecular_target": "T1, LRP5 (Homo sapiens, UniProt O75197)", "T1 sequence (O75197 32-1615)": "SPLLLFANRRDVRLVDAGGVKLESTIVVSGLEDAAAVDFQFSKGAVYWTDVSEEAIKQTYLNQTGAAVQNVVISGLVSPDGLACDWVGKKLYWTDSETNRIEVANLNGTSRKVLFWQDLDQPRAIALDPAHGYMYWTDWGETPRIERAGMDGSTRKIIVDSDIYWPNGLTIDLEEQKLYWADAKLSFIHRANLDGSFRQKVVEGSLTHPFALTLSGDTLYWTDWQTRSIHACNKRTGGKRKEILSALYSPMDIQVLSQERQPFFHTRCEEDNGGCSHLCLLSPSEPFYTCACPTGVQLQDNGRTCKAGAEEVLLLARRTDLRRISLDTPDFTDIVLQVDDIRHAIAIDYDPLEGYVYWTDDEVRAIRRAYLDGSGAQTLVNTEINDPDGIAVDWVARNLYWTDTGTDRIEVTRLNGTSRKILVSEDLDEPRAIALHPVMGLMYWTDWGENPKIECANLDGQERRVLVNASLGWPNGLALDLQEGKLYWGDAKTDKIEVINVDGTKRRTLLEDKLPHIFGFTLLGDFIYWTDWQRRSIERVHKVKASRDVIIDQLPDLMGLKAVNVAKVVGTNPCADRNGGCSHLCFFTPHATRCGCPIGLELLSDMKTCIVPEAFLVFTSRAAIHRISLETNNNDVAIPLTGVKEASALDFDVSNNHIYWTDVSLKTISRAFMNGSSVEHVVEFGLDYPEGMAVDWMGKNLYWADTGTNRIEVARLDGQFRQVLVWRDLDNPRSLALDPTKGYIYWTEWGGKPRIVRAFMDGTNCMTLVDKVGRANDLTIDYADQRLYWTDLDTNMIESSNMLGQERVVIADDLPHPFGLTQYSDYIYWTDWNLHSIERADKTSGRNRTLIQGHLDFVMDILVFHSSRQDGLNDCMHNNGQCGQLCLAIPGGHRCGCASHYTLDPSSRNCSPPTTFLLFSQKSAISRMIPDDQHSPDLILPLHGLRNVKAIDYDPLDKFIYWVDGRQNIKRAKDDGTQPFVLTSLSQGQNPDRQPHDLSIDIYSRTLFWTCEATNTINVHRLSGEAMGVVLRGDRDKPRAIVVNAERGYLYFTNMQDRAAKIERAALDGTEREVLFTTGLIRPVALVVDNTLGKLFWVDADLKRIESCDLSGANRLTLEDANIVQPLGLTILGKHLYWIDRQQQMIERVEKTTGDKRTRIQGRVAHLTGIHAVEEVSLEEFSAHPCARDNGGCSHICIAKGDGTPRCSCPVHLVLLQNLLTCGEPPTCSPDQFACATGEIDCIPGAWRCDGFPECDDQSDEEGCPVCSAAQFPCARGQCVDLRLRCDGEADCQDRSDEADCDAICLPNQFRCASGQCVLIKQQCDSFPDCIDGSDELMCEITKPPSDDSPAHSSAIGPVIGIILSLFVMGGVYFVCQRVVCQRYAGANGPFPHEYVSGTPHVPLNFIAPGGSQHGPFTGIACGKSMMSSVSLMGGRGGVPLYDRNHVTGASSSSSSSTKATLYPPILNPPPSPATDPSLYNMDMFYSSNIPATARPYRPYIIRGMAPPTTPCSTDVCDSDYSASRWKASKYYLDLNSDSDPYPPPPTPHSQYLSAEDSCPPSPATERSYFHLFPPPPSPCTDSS", "assay": "125I-Mesd binding to HEK293 cells transiently transfected with LRP5", "set-up": "Plasmid pcDNA3.1C-Myc-hLRP5 containing the full-length human LRP5 cDNA; expressed in transfected cells; host or cells: HEK293 cells, transient transfection", "settings": "125I-Mesd 5 nM, 4 hours at 4° C.", "description": "Cells (2×10^5) were seeded into 12-well dishes 1 day prior to assay. Ligand-binding buffer (minimal Eagle's medium containing 0.6% BSA with a different concentration of radioligand, 0.6 ml/well) was added to cell monolayers, in the absence or the presence of 500 nM unlabeled RAP or 500 nM unlabeled Mesd, followed with incubation for 0-4 hours at 4° C. Thereafter, overlying buffer containing unbound ligand was removed, and cell monolayers were washed and lysed in low-SDS lysis buffer (62.5 mM Tris-HCl pH 6.8, 0.2% SDS, 10% v/glycerol) and counted.\nTo determine whether Mesd binds to other members of the LDLR family, ^125I-Mesd binding analysis was performed with four groups of cells expressing different members of the LDLR family (FIG. 2). In the first experiment, HEK293 cells were transiently transfected with cDNAs for the LDLR, LRP5, LRP6 or empty pcDNA3 vector. […]"}, "Wnt signaling": {"test_system": "Wnt signaling", "assay": "Wnt signaling in MMTV-Wnt1 tumors (GST-E-cadherin pull-down, c-Myc expression)", "type": "in vivo, mice", "settings": "GST-E-cadherin pull-down and c-Myc expression", "description": "The GST-E-cadherin pulldown assay was performed as previously described (2). Cells expressing control or LRP6 shRNA were treated with L cells or Wnt3a-conditioned media (CM) for 4 h. Free β-catenin was determined using a GST-E-cadherin pull-down assay. Cells were lysed for 30 minutes at 4° C. Protein concentrations in lysates were quantified, and equal quantities of total proteins from different samples were incubated with GST-E-cadherin Sepharose beads for 4 h at 4° C. After incubation, the beads were washed three times and the bound proteins were eluted and separated via SDS-PAGE. Western blotting was performed using antibody to β-catenin.\nIn these experiments, mice bearing established MMTV-Wnt1 tumor transplants were divided into three groups (five animals per group) and were i.p. injected with PBS (vehicle), Mesd, or Mesd peptide every other day. Tumor volume was analyzed using caliper measurement. Data represent at least three independent experiments and each time point represents the mean tumor volume±SEM. *p<0.05; **p<0.01. […] Scale bar=50 μm."}, "LRP5 [4]": {"molecular_target": "T1, LRP5", "assay": "125I-DKK1 binding to LRP5", "settings": "FIG. 10B", "description": "In order to investigate the binding of Mesd polypeptide and an Mesd oligopeptide to either LRP5 or LRP6, binding assays were performed using ^125I-Mesd or ^125I-DKK1 (FIG. 10)."}},
  "data": [
    {"molecule": "Mesd: Recombinant full-length mouse Mesd expressed in E. coli, N-terminal polyhistidine tail, lacking the signal peptide (protein, left off: small tags and cut ends, Recombinant full-length mouse Mesd expressed in E. coli, N-terminal polyhistidine tail, lacking the signal peptide) ADTPGEATPPPRKKKDIRDYNDADMARLLEQWEKDDDIEEGDLPEHKRPSAPIDFSKLDPGKPESILKMTKKGKTLMMFVTVSGNPTEKETEEITSLWQGSLFNANYDVQRFIVGSDRAIFMLRDGSYAWEIKDFLVSQDRCAEVTLEGQMYPGKGGGSKEKNKTKPEKAKKKEGDRKPRASKEDNRAGSRREDL", "values": [
      {"measurement": "Absorption after dosing", "setting": "[1]", "value": "rapidly absorbed"},
      {"measurement": "Adverse effect on small intestine (gross examination)", "setting": "[2]; FIG. 17E", "value": "no significant adverse effect"},
      {"measurement": "Architecture of gastrointestinal compartments and skin (H&E)", "setting": "[2]; after 10 treatments", "value": "morphologically normal"},
      {"measurement": "Bone lesions or outgrowths in tail vertebrae", "setting": "[2]; conditions in which antitumor efficacy was achieved", "value": "no significant bone lesions or outgrowths"},
      {"measurement": "General health and body weight of treated mice", "setting": "[2]; mouse, in vivo", "value": "grossly healthy and maintain their weights"},
      {"measurement": "Mesd binding to LRP5", "setting": "LRP5 [3]", "value": "specifically binds to Mesd, albeit at lower levels compared to LRP6"},
      {"measurement": "Wnt signaling in tumors compared to control treatment", "setting": "Wnt signaling", "value": "decreased Wnt signaling"},
      {"measurement": "Reduction in binding of 125I-DKK1 to LRP5", "setting": "LRP5 [4]", "value": "small but significant reduction"}
    ]}
  ]
}
